Experimental findings from patent US20240392003A1 (NUMAB THERAPEUTICS, published 2024) are described below.

Where two headings read alike, the source gives them in different places.

Test [1] deals with T1, recombinant Cynomolgus monkey CD3ε (His-Tag; SinoBiological) (Cynomolgus monkey, UniProt Q95LI5 22-117).
T1 construct: Bought; also called cCD3ε; not shown: His tag
T1 sequence (looked up): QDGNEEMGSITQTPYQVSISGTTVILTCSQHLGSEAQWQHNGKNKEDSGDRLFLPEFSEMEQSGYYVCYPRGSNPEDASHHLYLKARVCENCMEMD
As to the kind of experiment: SPR; cCD3ε immobilized, two-state fit.

The target in test [2] is T1, recombinant Cynomolgus monkey CD3ε …. Nature of the test: SPR; cCD3ε immobilized, two-state fit (Ka1). (SPR reads the build-up and loss of mass on a sensor chip optically.)
For test [3], the target named is T2, recombinant human CD3 epsilon extra-cellular domain protein (His-Tag, SinoBiological) (human, UniProt P07766 23-126).
T2 construct: extracellular domain; Bought; also called hCD3ε; human CD3ε; not shown: His tag
As to the kind of experiment: SPR; hCD3ε immobilized, two-state fit (Ka1).

Test [4] concerns the target T2, recombinant human CD3 epsilon …. As to the kind of experiment: SPR; hCD3ε immobilized, two-state fit (Kd1).
For test [5], the target named is T1, recombinant Cynomolgus monkey CD3ε …. As to the kind of experiment: SPR; cCD3ε immobilized, two-state fit (Kd1).
Test [6] deals with T2, recombinant human CD3 epsilon …. As to the kind of experiment: SPR; hCD3ε immobilized, two-state fit.
For test [7], the target named is T3, human ROR1 expressed on cells (human, UniProt Q01973 30-937).
T3 construct: whole, on cells; One molecule for cell-surface ROR1 on all cell lines; the cell line is named under assay; also called hROR1; plasma membrane human ROR1
Nature of the test: flow cytometry, MDA-MB-231 cells; mean of three experiments. For orientation: A flow cytometer gives signals particle by particle.

In test [8] the target is T4, recombinant human ROR1 protein (Fc-Tag, Acro Biosystems RO1-H5250) (human, UniProt Q01973 30-406).
T4 construct: Bought; also called hROR1; recombinant human ROR1 ECD; not shown: Fc tag
As to the kind of experiment: SPR; hROR1-Fc immobilized.

Test [9] addresses T4, recombinant human ROR1 protein (Fc-Tag, …). As to the kind of experiment: SPR; hROR1-Fc immobilized. The source holds these as a separate data set.
For test [10], the target named is T5, cynomolgus monkey serum albumin (Molecular Innovations CYSA) (cynomolgus monkey).
T5 construct: also called cSA; CSA
As to the kind of experiment: SPR; cSA immobilized, pH 5.5.

The target in test [11] is T6, mouse serum albumin (Sigma-Aldrich A3559) (mouse, UniProt P07724 25-608).
T6 construct: also called mSA; MSA
As to the kind of experiment: SPR; mSA immobilized, pH 5.5.

Test [12] has as its target T6, mouse serum albumin (Sigma-Aldrich …). As to the kind of experiment: SPR; mSA immobilized, pH 5.5; biphasic binding corrected with bulk correction in 1:1 fit.
For test [13], the target named is T5, cynomolgus monkey serum albumin …. As to the kind of experiment: SPR; cSA immobilized, pH 7.4.
Test [14] concerns the target T6, mouse serum albumin (Sigma-Aldrich …). Nature of the test: SPR; mSA immobilized, pH 7.4.
Test [15] addresses T7, human serum albumin (Sigma-Aldrich A3782) (human, UniProt P02768 25-609).
T7 construct: also called hSA; HSA
As to the kind of experiment: SPR; hSA immobilized, pH 7.4.

Test [16] has as its target T6, mouse serum albumin (Sigma-Aldrich …). As to the kind of experiment: SPR; mSA immobilized, pH 7.4; biphasic binding corrected with bulk correction in 1:1 fit.
For test [17], the target named is T7, human serum albumin (Sigma-Aldrich …). As to the kind of experiment: SPR; hSA immobilized, pH 5.5.
Test [18] has as its target T3, human ROR1 expressed on cells. Nature of the test: flow cytometry, MDA-MB-231 cells, 1 mg/ml hSA.
Test [19] deals with T2, recombinant human CD3 epsilon …. Nature of the test: SPR; hCD3ε immobilized, two-state fit (kd1).
In test [20] the target is T3, human ROR1 expressed on cells. As to the kind of experiment: flow cytometry, gated on CLL patient tumor cells (ROR1 about 8k/cell), titration in the presence of human serum albumin, labelled framework-specific secondary reagent.
The target of test [21] is T2, recombinant human CD3 epsilon …. Nature of the test: SPR; hCD3ε immobilized, two-state fit. This is another data set of the same source.
For test [22] the target is unchanged. Nature of the test: SPR; hCD3ε immobilized, two-state fit (ka1).
Test [23] concerns the target T4, recombinant human ROR1 protein (Fc-Tag, …). Nature of the test: SPR; hROR1-Fc immobilized. This is another data set of the same source.
The target in test [24] is T3, human ROR1 expressed on cells. As to the kind of experiment: flow cytometry, MDA-MB-231 cells; mean of two experiments.
Test [25] has the same target. As to the kind of experiment: flow cytometry, MDA-MB-231 cells.
The target is the same in test [26]. As to the kind of experiment: flow cytometry, MDA-MB-231 cells. The source holds these as a separate data set.
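Wherever ka2 is given: biacore T200 measurement with target covalently coupled to a CM5 chip, antibody constructs injected as analyte over a concentration series, constants derived in Biacore Evaluation software 3.2.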
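Wherever kd2 is given: biacore T200 measurement with target covalently coupled to a CM5 chip, antibody constructs injected as analyte over a concentration series, constants derived in Biacore Evaluation software 3.2.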

B1: PRO726 (scFv, V domains shown)
VH: EVQLVESGGGLVQPGGSLRLSCAASGFSLSSYDMSWVRQAPGKGLAWIGASYASGPTYYASWAKGRFTISRDNSKNTVYLQMNSLRAEDTATYFCARGGWTGTSHSNIWGQGTLVTVSS
VL: DIQMTQSPSSLSASVGDRVTITCQSSQSVFSNNYLAWFQQKPGQSPKRLIYSASTLASGVPSRFSGSGSGTDFTLTISSLQPEDFATYYCLGSYACSSADCYVFGTGTKVTVLG
notes: scFv; also called 28-21-D09-sc04; anti-CD3 scFv
Usually Kd stands for the equilibrium constant for the complex coming apart. In general, kon refers to a measure of how fast the partners come together. As usually defined, the koff is a measure of how fast the partners let go of each other. With B1, the figures for the Kd in test [1] and in test [6] were 4.8 nM and 5.3 nM, respectively. Besides, the results for the kon in [2] and in test [3] were 820000 M⁻¹ s⁻¹ and 650000 M⁻¹ s⁻¹, respectively. Further, the koff in [4] stood at 0.0055 s⁻¹; in test [5] it was 0.0062 s⁻¹.

B2: PRO2060 (scFv, V domains shown)
VH: QSQVVESGGGLVQPGGSLRLSCAVSGFDLSSYAVSWVRQAPGKGLEWIGIIYPRANTYYASWAKGRFTISKDNSKNTVYLQMNSLRAEDTAVYFCARDRYDSGAYLYTTYFNLWGQGTLVTVSS
VL: DVQMTQSPSSLSASVGDRVTITCRASENIYSGLAWYQQKPGKPPKLLIYRASTLASGVSSRFSGSGSGTDFTLTISSLQPEDFATYYCQGGYYSSSSTYIAFGTGTKVTVLG
notes: scFv (Full graft); also called 55-38-D07-sc02
In general, EC50 refers to the midpoint of the concentration-response curve. Consider B2, for which a half-maximal response in [7] (EC50) required 2.93 nM. Further, in test [8], the Kd is 0.285 nM, the koff came to 9.56e-05 s⁻¹ and the kon turned out to be 335000 M⁻¹ s⁻¹. Besides, in test [9], the Kd was determined as 0.416 nM, the koff is 9.79e-05 s⁻¹ and the kon was 250000 M⁻¹ s⁻¹.

B3: PRO2155 (scFv, V domains shown)
VH: EVQLVESGGGLVQPGGSLRLSCAASGFSLSSYAMNWVRQAPGKGLEWIGHINAGDIAYYATWAKGRFTISRDNSKNTVYLQMNSLRAEDTAVYFCARGAGGFSTGPFKLWGQGTLVTVSS
VL: AFELTQSPSSLSASVGDRVTITCQASESINSRLAWYQQKPGQPPKLLIYDASDLTSGVPSRFSGSGSGTDFTLTISSLQPEDFATYYCQGYGGSSTTTFGGGTKLTVLG
notes: scFv; also called 19-04-A10-sc02; anti-hSA scFv
For B3, the Kd in test [10] came to 2.3 nM; in [12] it was 2.5 nM; in test [13], 1.6 nM; in [15], 2.2 nM; in [16], 9 nM; in test [17], 3.3 nM. Further, the dissociation rate constant (koff) was determined as 0.0021 s⁻¹ in [10]; 0.0002 s⁻¹ in test [11]; 0.00091 s⁻¹ in test [13]; 0.00029 s⁻¹ in test [14]; 0.0012 s⁻¹ in test [15]; 0.003 s⁻¹ in test [17]. Moreover, the kon was found to be 910000 M⁻¹ s⁻¹ in test [10]; 78000 M⁻¹ s⁻¹ in [11]; 580000 M⁻¹ s⁻¹ in test [13]; 32000 M⁻¹ s⁻¹ in test [14]; 550000 M⁻¹ s⁻¹ in [15]; 900000 M⁻¹ s⁻¹ in [17].

B4: PRO2668 (bispecific antibody)
chain: AFELTQSPSSLSASVGDRVTITCQASESINSRLAWYQQKPGQPPKLLIYDASDLTSGVPSRFSGSGSGTDFTLTISSLQPEDFATYYCQGYGGSSTTTFGCGTKLTVLGGGGGSEVQLVESGGGRVQPGGSLRLSCAASGFSLSSYDMSWVRQAPGKGLAWIGASYASGPTYYASWAKGRFTISRDNSKNTVYLQMNSLRAEDTATYFCARGGWTGTSHSNIWGQGTQVTVSSGGGGSGGGGSGGGGSGGGGSDIQMTQSPSSLSASVGDRVTITCQSSQSVFSNNYLAWFQQKPGQSPKRLIYSASTLASGVPSRFSGSGSGTDFTLTISSLQPEDFATYYCLGSYACSSADCYVFGTGTKVTVLGGGGGSEVQLVESGGGRVQPGGSLRLSCAASGFSLSSYAMNWVRQAPGKCLEWIGHINAGDIAYYATWAKGRFTISRDNSKNTVYLQMNSLRAEDTATYFCARGAGGFSTGPFKLWGQGTQVTVSSGGGGSGGGGSAQQLTQSPSSLSASVGDRVTITCQASQNVWNNNYLSWFQQKPGKPPKLLIVTASTLASGVSSRFSGSGSGTDFTLTISSLQPEDFATYYCAGGFSGEIRAFGCGTKVTVLGGGGGSGGGGSGGGGSGGGGSQSQLVESGGGRVQPGGSLRLSCAVSGLSLSRNAMSWVRQAPGKCLEWIGIILTSGSTYYASWAKGRFTISKDNSKNTVYLQMNSLRAEDTATYFCVRGIASSSLKSFWGQGTQVTVSS
notes: trispecific anti-ROR1 x hSA x CD3 scMATCH3, single chain, optimized variant of PRO2510; also called 19-04-A10-sc06(RTQ) scDb-o/28-21-D09-sc04 (RTQ) scDb-i/55-39-G02-sc05(RTQ)-scFv; RPO2668
In general, EC50 (read off the curve) refers to the concentration needed to bring the measured effect to its halfway point. On to B4, for which, in test [18], the EC50 is 0.74 nM and the “Rel. maximum binding (MFIscMATCH3/MFIPRO2213)” value was 2.89. For the same molecule, in test [19], the koff came to 0.0047 s⁻¹. Moreover, the “EC50 (read off the curve)” value in [20] is approximately 1 nM. In addition, in test [21], the Kd turned out to be 1.8 nM, the ka2 turned out to be 0.0049 s⁻¹ and the kd2 was 0.0023 s⁻¹. Also, the kon in [22] came out at 2.5e+06 M⁻¹ s⁻¹. Besides, in [23], the Kd was 0.28 nM, the koff is 0.00056 s⁻¹ and the kon turned out to be 2e+06 M⁻¹ s⁻¹.

B5: PRO2062 (scFv, V domains shown)
VH: QSQLVESGGGLVQPGGSLRLSCAVSGLSLSRNAMSWVRQAPGKGLEWIGIILTSGSTYYASWAKGRFTISKDNSKNTVYLQMNSLRAEDTAVYFCVRGIASSSLKSFWGQGTLVTVSS
VL: AQQLTQSPSSLSASVGDRVTITCQASQNVWNNNYLSWFQQKPGKPPKLLIVTASTLASGVSSRFSGSGSGTDFTLTISSLQPEDFATYYCAGGFSGEIRAFGTGTKVTVLG
notes: scFv (Full graft); also called 55-39-G02-sc02
For the molecule B5, in test [24], a half-maximal effect (EC50) was put at 0.26 nM. In addition, in [8], the Kd was 0.0926 nM, the koff was 0.00049 s⁻¹ and the kon stood at 5.29e+06 M⁻¹ s⁻¹. Moreover, in test [9], the Kd is 0.103 nM, the koff came to 0.000455 s⁻¹ and the kon worked out at 4.45e+06 M⁻¹ s⁻¹.

B6: PRO2271 (scFv, V domains shown)
VH: QSQLVESGGGLVQPGGSLRLSCAVSGIDLSRNAMSWVRQAPGKGLEWIGIILTSGSTYYASWAKGRFTISKTSTTLDLQMNSLRAEDTAVYFCVRGIASSSLKSFWGQGTLVTVSS
VL: AQQLTQSPSSLSASVGDRVTITCQASQNVWNNNYLSWFQQKPGKPPKLLIVTASTLASGVSSRFSGSGSGTDFTLTISSLQPEDFATYYCAGGFSGEIRAFGTGTKVTVLG
notes: scFv, T cell score optimized variant of PRO2062; also called 55-39-G02-sc03
B6: in test [25], the “fold lower apparent binding affinity than PRO2062” value is approximately 2 fold. In addition, in test [8], the equilibrium dissociation constant (Kd) was 0.364 nM, the koff amounted to 0.000578 s⁻¹ and the kon was found to be 1.59e+06 M⁻¹ s⁻¹. Besides, in [26], the EC50 was 0.63 nM and the “Rel. maximum binding (MFIscFv/MFIPRO2213)” value came out at 0.87.
